From patent US20180022819A1 (published 2018) come the findings set out here.

Assay [1] concerns the target T1, prostate-specific membrane antigen (PSMA) (human, UniProt Q04609 1-750). Nature of the assay: flow cytometry binding, 22Rv1 cells; 1 wk enza. On the technique in general: Flow cytometry measures light scatter and fluorescence of single cells or particles in a stream.
Assay [2] concerns the target T1, prostate-specific membrane antigen …. The experiment in a line: flow cytometry binding, 22Rv1 cells; 2 wk enza.
The target is the same in assay [3]. Nature of the assay: flow cytometry binding, 22Rv1 cells; 3 wk enza.
Assay [4] has the same target. Nature of the assay: flow cytometry binding, 22Rv1 cells; 0 enza (untreated).

T1 sequence (Q04609 whole entry): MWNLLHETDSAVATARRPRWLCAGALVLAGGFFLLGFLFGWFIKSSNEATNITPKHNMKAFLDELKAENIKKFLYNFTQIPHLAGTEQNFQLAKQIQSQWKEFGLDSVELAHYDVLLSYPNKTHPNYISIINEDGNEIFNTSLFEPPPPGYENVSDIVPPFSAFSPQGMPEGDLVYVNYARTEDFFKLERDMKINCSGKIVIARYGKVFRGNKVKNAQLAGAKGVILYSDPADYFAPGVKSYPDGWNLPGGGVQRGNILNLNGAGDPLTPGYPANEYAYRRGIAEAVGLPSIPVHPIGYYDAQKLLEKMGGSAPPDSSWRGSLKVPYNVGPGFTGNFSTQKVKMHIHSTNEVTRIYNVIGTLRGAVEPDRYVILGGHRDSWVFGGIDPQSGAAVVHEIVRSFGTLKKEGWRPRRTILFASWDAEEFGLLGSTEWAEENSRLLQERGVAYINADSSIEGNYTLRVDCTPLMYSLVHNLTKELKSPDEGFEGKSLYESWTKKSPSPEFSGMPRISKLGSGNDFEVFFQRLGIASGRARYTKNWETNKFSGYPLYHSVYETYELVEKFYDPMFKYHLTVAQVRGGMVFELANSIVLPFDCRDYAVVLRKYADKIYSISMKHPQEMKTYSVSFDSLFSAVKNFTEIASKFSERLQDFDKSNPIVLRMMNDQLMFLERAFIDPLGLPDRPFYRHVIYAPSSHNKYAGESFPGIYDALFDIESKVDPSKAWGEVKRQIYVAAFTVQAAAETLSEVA

B1: FITC-labeled anti-PSMA monoclonal antibody 107-1A4 (Acris) (antibody, V domains shown)
VH: EIQLQQSGPELVKPGASVKMSCKASGYTFTDYYMHWVKQNNGESLEWIGYFNPYNDYTRYNQNFNGKATLTVDKSSSTAYMQLNSLTSEDSAFYYCARSDGYYDAMDYWGQGTSVTVSS
VL: DVQITQSPSYLAASPGETITINCRASKSISKYLAWYQEKPGKANKLLIHSGSTLQSGIPSRFSGSGSGTDFTLTISSLEPEDFAMYYCQQHIEYPWTFGGGTKLEIKR
In general, EC50 refers to the concentration that produces a half-maximal response. With B1, the EC50 in assay [1] came out at 2.3 nM; in assay [2] it was 2.5 nM; in assay [3] it was 2.7 nM; in assay [4] it was 2.2 nM.
